Two substances from patent US20190300577A1 can be followed below.

Assay [1] has as its target selectins on endothelium. The experiment in a line: cell-based or functional assay.
Assay [2] concerns the target recombinant human P-selectin Fc chimera (human) (UniProt P16109). The assay is described as follows: Biacore; biotinylated glycopeptide on streptavidin chip, P-sel-Ig flowed. In general terms: SPR reads the build-up and loss of mass on a sensor chip optically.
For assay [3], the target named is recombinant mouse P-selectin Fc chimera (mouse) (UniProt Q01102). The assay is described as above.
Assay [4] concerns the target recombinant human L-selectin Fc chimera (human) (UniProt P14151). The assay is described as follows: flow cytometry; inhibition of human L-selectin Fc chimera binding to human U-937 cells. On the technique in general: A flow cytometer gives signals particle by particle.
For assay [5], the target named is recombinant human P-selectin Fc chimera (human) (UniProt P16109). The assay is described as follows: flow cytometry; inhibition of human P-selectin Fc chimera binding to human U-937 cells.
Assay [6] has as its target recombinant mouse L-selectin Fc chimera (mouse) (UniProt P18337). The experiment in a line: flow cytometry; inhibition of mouse L-selectin Fc chimera binding to murine neutrophils.
The target of assay [7] is recombinant mouse P-selectin Fc chimera (mouse) (UniProt Q01102). The assay is described as follows: flow cytometry; inhibition of mouse P-selectin Fc chimera (2 µg/mL) binding to murine PMN.
Assay [8] has as its target recombinant human P-selectin Fc chimera (human) (UniProt P16109). The experiment in a line: Biacore; biotinylated glycopeptide on streptavidin chip, P-sel-Ig (2.5 to 60 µg/mL) flowed.
The target is the same in assay [9]. The assay is described as follows: flow cytometry; inhibition of human P-selectin Fc chimera binding to human peripheral blood PMN.
Assay [10] shares this target. The assay is described as follows: flow cytometry; inhibition of human P-selectin Fc chimera binding to human peripheral blood monocytes.
Assay [11] deals with recombinant mouse P-selectin Fc chimera (mouse) (UniProt Q01102). The experiment in a line: Biacore; biotinylated glycopeptide captured on a streptavidin chip, mP-sel-Ig flowed over (trace shown at 20 µg/ml) [lower middle panel 'mP-sel-Ig (20 µg/ml)' (E in the legend].
Assay [12] concerns the target recombinant human P-selectin Fc chimera (human) (UniProt P16109). The experiment in a line: comparator value given with the Biacore results; method not stated.

Chain of recombinant mouse P-selectin Fc chimera (mouse) (Q01102 42-709, change not shown): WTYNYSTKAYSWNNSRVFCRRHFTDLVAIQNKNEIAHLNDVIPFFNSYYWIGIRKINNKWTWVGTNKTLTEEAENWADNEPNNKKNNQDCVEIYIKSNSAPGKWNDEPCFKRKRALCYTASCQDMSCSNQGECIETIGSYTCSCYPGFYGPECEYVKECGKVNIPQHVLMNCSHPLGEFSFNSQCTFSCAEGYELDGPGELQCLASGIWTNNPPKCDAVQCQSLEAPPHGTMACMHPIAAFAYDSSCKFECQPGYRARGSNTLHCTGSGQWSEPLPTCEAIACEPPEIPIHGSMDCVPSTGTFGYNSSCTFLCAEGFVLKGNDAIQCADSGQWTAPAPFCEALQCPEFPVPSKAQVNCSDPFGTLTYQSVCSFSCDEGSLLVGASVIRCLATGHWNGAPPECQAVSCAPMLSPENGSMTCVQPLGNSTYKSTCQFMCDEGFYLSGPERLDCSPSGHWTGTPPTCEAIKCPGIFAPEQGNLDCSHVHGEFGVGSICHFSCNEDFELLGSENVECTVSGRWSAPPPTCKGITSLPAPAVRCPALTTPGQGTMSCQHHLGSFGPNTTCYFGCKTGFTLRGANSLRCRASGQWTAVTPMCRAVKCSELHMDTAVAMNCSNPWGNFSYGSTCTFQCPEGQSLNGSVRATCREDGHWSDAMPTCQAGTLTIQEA
Chain of recombinant human P-selectin Fc chimera (human) (P16109 42-771, change not shown): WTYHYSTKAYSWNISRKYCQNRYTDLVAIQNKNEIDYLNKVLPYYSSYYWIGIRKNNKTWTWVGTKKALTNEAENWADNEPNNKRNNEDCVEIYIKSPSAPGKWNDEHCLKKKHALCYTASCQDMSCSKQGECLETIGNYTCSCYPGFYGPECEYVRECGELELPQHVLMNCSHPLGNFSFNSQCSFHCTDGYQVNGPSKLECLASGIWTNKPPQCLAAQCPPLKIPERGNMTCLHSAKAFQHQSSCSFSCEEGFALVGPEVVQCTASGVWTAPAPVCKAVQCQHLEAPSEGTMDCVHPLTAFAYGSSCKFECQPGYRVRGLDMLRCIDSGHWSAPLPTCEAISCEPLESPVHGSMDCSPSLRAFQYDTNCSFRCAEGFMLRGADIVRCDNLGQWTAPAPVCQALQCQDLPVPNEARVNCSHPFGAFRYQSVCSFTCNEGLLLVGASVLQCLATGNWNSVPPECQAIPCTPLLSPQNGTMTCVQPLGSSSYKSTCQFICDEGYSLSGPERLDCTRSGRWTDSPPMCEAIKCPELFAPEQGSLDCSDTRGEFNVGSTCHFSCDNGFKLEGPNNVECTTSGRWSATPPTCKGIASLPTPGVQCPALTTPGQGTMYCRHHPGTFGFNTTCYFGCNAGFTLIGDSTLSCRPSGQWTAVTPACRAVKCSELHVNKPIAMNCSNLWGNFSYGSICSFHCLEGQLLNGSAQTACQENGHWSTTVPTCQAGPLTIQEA
Chain of recombinant mouse L-selectin Fc chimera (mouse) (P18337 39-332, change not shown): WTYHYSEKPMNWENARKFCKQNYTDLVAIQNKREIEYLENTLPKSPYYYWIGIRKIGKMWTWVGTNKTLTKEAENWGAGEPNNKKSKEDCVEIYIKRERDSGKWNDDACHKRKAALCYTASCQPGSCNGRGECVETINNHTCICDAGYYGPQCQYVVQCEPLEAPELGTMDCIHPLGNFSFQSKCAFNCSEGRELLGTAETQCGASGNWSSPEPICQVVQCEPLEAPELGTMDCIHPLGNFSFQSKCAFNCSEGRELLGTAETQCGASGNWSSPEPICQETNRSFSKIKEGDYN
Chain of recombinant human L-selectin Fc chimera (human) (P14151 39-332, change not shown): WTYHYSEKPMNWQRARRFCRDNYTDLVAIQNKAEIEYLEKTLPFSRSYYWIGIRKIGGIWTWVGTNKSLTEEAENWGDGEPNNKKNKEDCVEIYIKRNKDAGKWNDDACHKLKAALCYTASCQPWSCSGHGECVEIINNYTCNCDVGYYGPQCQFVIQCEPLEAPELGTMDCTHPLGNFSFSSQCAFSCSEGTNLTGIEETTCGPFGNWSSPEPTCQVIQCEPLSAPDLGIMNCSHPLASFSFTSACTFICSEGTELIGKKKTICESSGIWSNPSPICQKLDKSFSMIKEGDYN

Usually kon stands for the rate constant with which the complex forms. For orientation: IC50 means the midpoint of a concentration-inhibition curve. As usually defined, the Kd is the constant that tells how readily two partners part at equilibrium. In assay [1], GSnP-6 (peptide) gave a mean leukocyte rolling velocity (intravital microscopy, murine cremaster venules, GSnP-6 IV) of 74.9 µm/s. In addition, the kon is 310000 M⁻¹ s⁻¹ in [2] and 49000 M⁻¹ s⁻¹ in assay [3]. In addition, in [3], the fold difference of Kd against human P-selectin was found to be 9 fold. The IC50 is 30 µM in [4]; 8 µM in assay [5]; over 50 µM in assay [6]; 15 µM in [7]; 30 µM in assay [9]; 30 µM in assay [10]. For the same substance, the Kd in assay [8] stood at 0.022 µM; in [11], 0.186 µM.
Take “native PSGL-1 (from UniProt Q14242 42-412) (ligand)”: in assay [12], the Kd is 0.073 µM.
